Results reported in the supplement of paper PMC12667976.

B1: library; numbered along this chain (parent)
chain: MATDAALRRLLRLHRTEIAVAVDSAFPLLHALADHDVVPEDKFQETLHLKEKEGCPQAFHALLSWLLTQDSTAILDFWRVLFKDYNLERYGRLQPILDSFPKDVDLSQPRKGRKPPAVPKALVPPPRLPTKRKASEEARAAAPAALTPRGTASPGSQLKAKPPKKPESSAEQQRLPLGNGIQTMSASVQRAVAMSSGDVPGARGAVEGILIQQVFESGGSKKCIQVGGEFYTPSKFEDSGSGKNKARSSSGPKPLVRAKGAQGAAPGGGEARLGQQGSVPAPLALPSDPQLHQKNEDECAVCRDGGELICCDGCPRAFHLACLSPPLREIPSGTWRCSSCLQATVQEVQPRAEEPRPQEPPVETPLPPGLRSAGEEVRGPPGEPLAGMDTTLVYKHLPAPPSAAPLPGLDSSALHPLLCVGPEGQQNLAPGARCGVCGDGTDVLRCTHCAAAFHWRCHFPAGTSRPGTGLRCRSCSGDVTPAPVEGVLAPSPARLAPGPAKDDTASHEPALHRDDLESLLSEHTFDGILQWAIQSMARPAAPFPS

Variants of: B1
Test: AIRE transcriptional activation functional score (insulin promoter-GFP; nonsense median 0, synonymous median 1) (normalised score); higher = higher AIRE activity (more reporter activation)
Settings: with insulin promoter-GFP reporter in HEK293
Procedure: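 Deep mutational scan of full-length human AIRE (codon-optimized cDNA, DT-POPCode NNN libraries over three regions) integrated at a Bxb1 landing pad in HEK293 cells carrying an insulin core promoter-GFP reporter at a Flp-In site. Cells were sorted for the top 10% GFP about 14 days after transfection. Variant frequency log-ratios (select vs non-select, TileSeq) were rescaled so that the nonsense median is 0 and the synonymous median is 1, then averaged over biological replicates.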

AIRE transcriptional activation functional score: each site, then its substitutions
R15: V 0.0544, S -0.0525, W 0.0452, C -0.257, G -0.349, D 0.279, L 0.37, K -1.95, T 0.316, I 0.486, Y -0.904, M 0.112, A -0.222, H -0.146, P -0.373, Q 0.45, F 0.0396
H14: P -0.256, Y 0.888, D -0.577, V -0.238, T 0.312, L -0.153, G 0.338, S 0.00226, Q 0.144, N 1.68, I -0.18, F 0.561, M -0.84, R -0.348, W 0.335, C -0.236, E -1.27, A -0.0434
E17: C -0.595, F -0.224, V 0.0123, T 0.383, K 0.389, G -0.233, L 0.113, W -0.29, P -0.151, N -0.662, I -0.454, R -0.438, Y -0.411, A 0.78, H 0.241, M 0.896, D 1.42, S -0.0199, Q -0.406
I18: F 0.0176, E 0.682, S 0.138, M 0.409, R 0.483, V -0.092, L 0.304, Y -0.479, H 0.614, D 0.751, C -0.426, A -0.708, T -0.194, K 0.219, Q -0.126, N -0.247, P -0.146, W 0.00284, G 0.378
A19: M 1.9, Y -2.2, T -0.102, H 0.194, D 0.412, W -0.29, L 0.0523, Q -1.03, C 0.605, I -0.333, E 0.513, R 0.348, G 0.563, S 0.921, K 0.838, F 0.0254, P -0.228, V -0.0384
L13: C 0.26, I 0.695, P 0.275, R 1.36, M 1.23, F 1.11, H 0.357, Q 0.368, Y 1.42, A 0.273, E 0.79, G -0.0939, N -0.209, S -0.217, W 0.425, V 0.593, D -0.291, T 0.418
R12: D -0.77, G 0.415, P 0.187, V 0.442, T -0.393, K 1.84, F -0.626, H -0.211, Q -1.11, E -0.463, M 0.457, S -0.0905, I -0.464, W -0.0189, L 0.419, Y -0.191
A21: E 0.657, D -0.73, F -0.0679, C 0.675
T16: R -0.0166, D -0.128, L -0.113, G 0.0399, S -0.287, A -0.419, K -0.208, M 0.203, H -0.704, P -0.109, V 0.0381, F -0.112, I -0.0145, N 0.597, E 1.64, Q -0.475, Y 0.309, W -0.366, C 0.227
V20: T 0.0422, K -0.579, C -0.981, I 1.31, Q -0.25, P 0.184, L 0.278, D 0.0604, Y 0.662, W 0.633, S -0.474, G -0.208, H -0.433, N -0.0183, E -1.26, A -0.889, M 0.622, F 0.146, R -0.283
